Measurements from patent US20240293465A1.

B1: bovine FXa (activated bovine clotting factor X) (protein)
chain: ANSFLEEVKQGNLERECLEEACSLEEAREVFEDAEQTDEFWSKYKDGDQCEGHPCLNQGHCKDGIGDYTCTCAEGFEGKNCEFSTREICSLDNGGCDQFCREERSEVRCSCAHGYVLGDDSKSCVSTERFPCGKFTQGRSRRWAIHTSEDALDASELEHYDPADLSPTESSLDLLGLNRTEPSAGEDGSQVVRIVGGRDCAEGECPWQALLVNEENEGFCGGTILNEFYVLTAAHCLHQAKRFTVRVGDRNTEQEEGNEMAHEVEMTVKHSRFVKETYDFDIAVLRLKTPIRFRRNVAPACLPEKDWAEATLMTQKTGIVSGFGRTHEKGRLSSTLKMLEVPYVDRSTCKLSSSFTITPNMFCAGYDTQPEDACQGDSGGPHVTRFKDTYFVTGIVSWGEGCARKGKFGVYTKVSNFLKWIDKIMKARAGAAGSRGHSEAPATWTVPPPLPL

Assays:
[1] = biological target: human C3 (UniProt P01024)
[2] = biological target: human C3, P01024
Chain of human C3, P01024 (P01024 whole entry, looked up): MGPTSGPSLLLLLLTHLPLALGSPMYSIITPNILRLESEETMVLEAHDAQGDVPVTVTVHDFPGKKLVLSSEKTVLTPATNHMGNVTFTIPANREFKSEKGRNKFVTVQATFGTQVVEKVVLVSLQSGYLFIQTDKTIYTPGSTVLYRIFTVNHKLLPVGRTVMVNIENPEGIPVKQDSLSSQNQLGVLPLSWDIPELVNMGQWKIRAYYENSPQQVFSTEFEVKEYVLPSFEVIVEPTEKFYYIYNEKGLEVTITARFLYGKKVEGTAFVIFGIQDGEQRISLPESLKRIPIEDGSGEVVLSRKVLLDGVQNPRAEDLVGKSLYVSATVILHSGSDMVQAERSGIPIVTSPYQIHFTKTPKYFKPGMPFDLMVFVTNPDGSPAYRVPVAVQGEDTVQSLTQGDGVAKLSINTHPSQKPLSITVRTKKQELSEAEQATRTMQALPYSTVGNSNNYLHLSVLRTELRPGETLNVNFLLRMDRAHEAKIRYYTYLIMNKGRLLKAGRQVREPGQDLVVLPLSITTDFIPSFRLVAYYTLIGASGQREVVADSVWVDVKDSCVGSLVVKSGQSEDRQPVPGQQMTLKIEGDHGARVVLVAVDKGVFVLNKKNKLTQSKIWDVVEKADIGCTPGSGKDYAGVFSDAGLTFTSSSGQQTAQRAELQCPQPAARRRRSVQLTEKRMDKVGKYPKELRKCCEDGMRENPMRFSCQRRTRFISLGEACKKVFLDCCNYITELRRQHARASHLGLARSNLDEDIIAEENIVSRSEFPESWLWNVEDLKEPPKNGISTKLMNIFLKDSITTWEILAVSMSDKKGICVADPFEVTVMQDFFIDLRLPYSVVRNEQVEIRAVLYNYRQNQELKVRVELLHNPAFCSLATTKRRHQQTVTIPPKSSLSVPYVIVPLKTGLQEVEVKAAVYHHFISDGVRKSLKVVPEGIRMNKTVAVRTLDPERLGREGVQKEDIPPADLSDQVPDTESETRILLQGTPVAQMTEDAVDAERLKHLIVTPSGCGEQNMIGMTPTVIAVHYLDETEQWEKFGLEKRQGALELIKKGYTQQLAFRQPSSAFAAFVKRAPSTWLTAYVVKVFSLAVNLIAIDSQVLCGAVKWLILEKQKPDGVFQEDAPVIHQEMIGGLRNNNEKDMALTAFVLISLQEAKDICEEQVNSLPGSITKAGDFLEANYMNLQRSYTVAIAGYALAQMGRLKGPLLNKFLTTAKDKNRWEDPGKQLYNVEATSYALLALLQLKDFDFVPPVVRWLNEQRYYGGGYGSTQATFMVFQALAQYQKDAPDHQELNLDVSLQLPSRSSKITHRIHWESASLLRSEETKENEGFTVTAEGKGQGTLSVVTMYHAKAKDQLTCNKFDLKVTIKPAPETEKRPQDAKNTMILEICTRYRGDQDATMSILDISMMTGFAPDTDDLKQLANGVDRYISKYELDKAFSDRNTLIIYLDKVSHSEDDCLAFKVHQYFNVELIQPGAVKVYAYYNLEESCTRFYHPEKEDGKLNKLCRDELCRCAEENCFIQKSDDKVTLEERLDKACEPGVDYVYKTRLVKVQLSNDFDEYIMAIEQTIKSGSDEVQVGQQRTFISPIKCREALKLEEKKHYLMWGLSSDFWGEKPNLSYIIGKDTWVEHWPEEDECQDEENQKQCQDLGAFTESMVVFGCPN

| Molecule | cleavage of the C3 alpha chain to the a' chain (Western blot) [1] | cleavage of the C3 alpha chain to the a' chain (Western blot) [2] |
| --- | --- | --- |
| human FCXIa (activated form of human clotting factor XI) | can cleave C3 in vitro in the absence of any complement proteases | – |
| human FXa (activated form of human clotting factor X) | can cleave C3 in vitro in the absence of any complement proteases | – |
| B1 | – | can cleave C3 in vitro in the absence of any complement proteases |
